Data on 1 molecule can be found in patent US20240254220A1, “COMBINED THERAPY USING ANTI-CD300C ANTIBODY” (CentricsBio, Inc., priority 2021, published 2024).

Experiment [1] has as its system colon cancer cell line (CT26) tumor. The experiment in a line: Tumor immune cell FACS analysis in CT26 syngeneic mouse tumor model. It counts as in vivo, BALB/c mice.
Excerpt: In order to identify effects of the anti-CD300c monoclonal antibody CL7 on tumor-associated macrophages under in vivo conditions, a colon cancer cell line (CT26) at 2×10^5 cells was transplanted by subcutaneous injection into 8-week-old BALB/c mice to prepare syngeneic mouse tumor models. Animal breeding and experiments were all conducted in a specific pathogen free (SPF) facility. In addition, 12 days after transplantation of the colon cancer cell line, the mice with a tumor size of 50 mm^3 to 100 mm^3 were separately administered the anti-CD300c monoclonal antibody, and for a control group, the mice were injected with the same amount of phosphate buffered saline (PBS). The mice were intraperitoneally injected with 25 mg/kg of each substance twice a week for two weeks over a total of 4 times. On day 25 after the injection, the mice were sacrificed, and the tumor tissue was collected from each of six mice in the CL7 25 mg/kg administration group showing a highest antitumor effect compared with the control group. The tumor tissue was taken out and then incubated at 37° C. for 1 hour in a mixed solution of collagenase D (20 mg/mL) and DNase I (2 mg/mL). Thereafter, the resultant product was filtered through a 70 μm cell strainer, followed by the lysis of red blood cells, and then again filtered through a nylon mesh. Subsequently, the single cell suspension was blocked with CD16/32 antibody (from Invitrogen), and the cells were stained with a staining solution for checking cell viability (from Invitrogen), and antibodies (from Abcam) to the total macrophage marker F4/80 and the M1 macrophage marker iNOS. Then, the data were read with CytoFLEX flow cytometer and analyzed with FlowJo software.
In order to identify effects of the anti-CD300c monoclonal antibody CL7 on CD8+ T cells under in vivo conditions, syngeneic mouse tumor models were prepared as in Experimental Example 3.2 and administered the anti-CD300c monoclonal antibody at the same concentration.
(§1) On day 25 after the injection, the mice were sacrificed, and the tumor tissue was collected from each of six mice in the CL7 25 mg/kg administration group showing a highest antitumor effect compared with the control group. The tumor tissue was taken out and then incubated at 37° C. for 1 hour in a mixed solution of collagenase D (20 mg/mL) and DNase I (2 mg/mL). Thereafter, the resultant product was filtered through a 70 μm cell strainer, followed by the lysis of red blood cells, and then again filtered through a nylon mesh. Subsequently, the single cell suspension was blocked with CD16/32 antibody (from Invitrogen), and the cells were stained with a staining solution for checking cell viability and a CD8+ antibody (from Abcam) and a CD4+ antibody (from Abcam). Thereafter, the data were read with CytoFLEX flow cytometer and analyzed with FlowJo software.
as §1, with “In order to identify whether the anti-CD300c monoclonal antibody CL7 increases the number of CD8+ T cells in a tumor-specific manner, syngeneic mouse tumor models were prepared as in Experimental Example 3.2 and administered the anti-CD300c monoclonal antibody at the same concentration. On” for “On”, “AH1 tetramer” for “a CD8+ antibody (from Abcam) and a CD4+”, “software. […]” for “software.”

Experiment [2] relates to CD300a antigen and seven B7 family protein antigens (PD-L1, ICOS Ligand, CD276, B7-H4, CD80, CD86, CD273). As to the kind of experiment: Binding specificity ELISA against B7 family proteins. The note with it: antigens coated at 8 μg/mL. The procedure:
In order to identify that the anti-CD300c monoclonal antibody CL7 specifically binds only to CD300c without binding to other B7 family proteins, binding ELISA was performed. More specifically, each of CD300c antigen, CD300a antigen, or seven B7 family protein antigens (PD-L1 [B7-H1] (Sino Biological), ICOS Ligand[B7-H2] (Sino Biological), CD276[B7-H3] (Sino Biological), B7-H4 (Sino Biological), CD80[B7-1] (Sino Biological), CD86[B7-2] (Sino Biological), CD273[PD-L2] (Sino Biological)) in a coating buffer (0.1 M sodium carbonate, pH 9.0) was coated on an ELISA plate at a concentration of 8 μg/mL per well, and then bound to the plate by incubation at 2° C. to 8° C. overnight. The unbound antigen was removed by washing with PBST three times, and then […] of blocking buffer (5% skim milk in PBST) was added to each well. Subsequently, blocking was performed at room temperature for 1 hour, followed by washing again with PBST. Thereafter, CL7 was diluted in quadruplicate with PBS, incubated with the antigen at room temperature for 1 hour for antigen binding 1 hour later, and washed three times with PBST. […] Then, 2 N sulfuric acid solution was added to terminate the development reaction, and the absorbance was measured at 450 nm to identify the antibody specifically binding to the CD300c antigen.

Experiment [3] addresses T1, CD300a antigen (Homo sapiens, UniProt Q9UGN4).
T1 construct: purchased Sino Biological 12449-H08H
T1 sequence (Q9UGN4 18-180 limits assumed): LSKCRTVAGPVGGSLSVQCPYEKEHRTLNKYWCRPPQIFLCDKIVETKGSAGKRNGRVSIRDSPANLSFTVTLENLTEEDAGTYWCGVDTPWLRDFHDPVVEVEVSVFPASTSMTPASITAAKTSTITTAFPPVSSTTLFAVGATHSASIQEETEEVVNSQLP
The experiment in a line: CD300a cross-reactivity binding ELISA. The note with it: CD300a antigen 0.039, 0.63, 10 μg/mL. The procedure: More specifically, the CD300a antigen (from Sino Biological) was used to treat at concentrations of 0.039 μg/mL, 0.63 μg/mL, and 10 μg/mL, and then binding ELISA was performed by the same method as in Experimental Example 2.1.

The mark [4] stands for this setting: Experimental Example 3.7, 25 mg/kg i.p., day 25.

B1: CL7: anti-CD300c monoclonal antibody, VH3VL1 phage library, VH SEQ ID 327, VL SEQ ID 328 (antibody, V domains shown)
VH: EVQLLESGGGLVQPGGSLRLSCAASGFTFSRYAMSWVRQAPGKGLEWVSAISGSGGSTYYADSVKGRFTISRDNSKNTLYLQMNSLRAEDTAVYYCARSSQGIFDIWGQGTLVTVSS
VL: QSVLTQPPSASGTPGQRVTISCSGNNIGTRRVHWYQQLPDTAPKLLIYSKNNRPSGVPDRFSGSKSGTSASLAISGLRSEDEADYYCAAWDDSLSGPVFGGGTKLTVL
modifications: CL7 Heavy Chain Variable Region; CL7 Light Chain Variable Region
Regarding B1, the “expression level of M1 type tumor-associated macrophages in cancer tissue” value in experiment [1] (25 mg/kg i.p. twice a week, 4 times, day 25, vs PBS) is on record as “increased”. In experiment [1] (25 mg/kg i.p., day 25), the “CD8+ T cells compared with Treg T cells” value is on record as “increased” and the “expression of AH1 tetramer in CD8+ T cells” value is listed as “increased”. The “number of T cells in tumor” value in experiment [1] (25 mg/kg i.p., day 25, CD8+/CD4+ staining) is on record as “increased”. Further, in experiment [1] (setting [4]), the “activated CD8+ T cells” value is “significantly increased”, the “regulatory T cells” value is reported as “inhibited” and the tumor-associated macrophage phenotype result is given as “repolarized tumor-associated macrophages towards M1 phenotype”. Besides, the “binding specificity versus other similar proteins” value in experiment [2] is reported as “specifically recognized only CD300c without binding to other similar proteins”. Moreover, in experiment [3], the “binding to antigens other than CD300c (CD300a)” value was “did not bind to antigens other than CD300c”.
